# From US9376486 (NATIONAL UNIVERSITY OF SINGAPORE, dated 2016)
# Tests used:
# [1] = molecular target: T1, Dengue virus serotype 1 strain PVP 159 (DENV1/SG/07K3640DK1/2008) E protein, on whole virus (Dengue virus serotype 1, UniProt P27909 281-676)
# T1 construct: also called DENV1 E protein
# [2] = molecular target: T2, Dengue virus serotype 4 (DENV4) E protein, on whole virus (Dengue virus serotype 4, UniProt P09866 280-774); test: sandwich ELISA on live whole virus
# T2 construct: mature; also called Dengue serotype 4
# [3] = molecular target: T3, Dengue virus serotype 2 (DENV2) E protein, on whole virus (Dengue virus serotype 2, UniProt P29990 281-775); test: sandwich ELISA on live whole virus
# T3 construct: mature; also called Dengue serotype 2
# [4] = molecular target: T4, Dengue virus serotype 3 (DENV3) E protein, on whole virus (Dengue virus serotype 3, UniProt P27915 281-773); test: sandwich ELISA on live whole virus
# T4 construct: mature; also called Dengue serotype 3
Binder,binding result [1],binding result [2],binding result [3],binding result [4]
"Fab HM14c10 (Fab, V domains shown, also called HM14c10Fab; Fab 14c10) VH: EVQLVESGGGVVQPGRSLRLSCAASGFSFSSYGMHWVRQAPGKGLEWVAVIWYDGSKTYYGDSVKGRFTISKDNSKKMVNLQMDSLGVEDTAFYYCARGIAGGWAFWGIDLWGQGTLVTVSS VL: DVVMTQSPGTLSLSPGERATLSCRASQNVYSYLGWYQHKPGRSPRLLIFGVTSRATGVPDRFSGSGSGTDFTLTISRLEPEDFAVYYCQQYAGSAYTFGQGTKVEIKR",binds,–,–,–
"HM14c10 (recombinant human IgG1 antibody 14c10, clone 8) (antibody, V domains shown, also called 14c10.8; recombinant IgG1 14c10 antibody) VH: EVQLVESGGGVVQPGRSLRLSCAASGFSFSSYGMHWVRQAPGKGLEWVAVIWYDGSKTYYGDSVKGRFTISKDNSKKMVNLQMDSLGVEDTAFYYCARGIAGGWAFWGIDLWGQGTLVTVSS VL: DVVMTQSPGTLSLSPGERATLSCRASQNVYSYLGWYQHKPGRSPRLLIFGVTSRATGVPDRFSGSGSGTDFTLTISRLEPEDFAVYYCQQYAGSAYTFGQGTKVEIKR",–,no binding,no binding,no binding
